Reference: PMC9482650, “Quantitative fragmentomics allow affinity mapping of interactomes” (Nature Communications, 2022)

T1: ARHGEF11, O15085
T1 sequence (O15085 42-136, limits assumed, looked up): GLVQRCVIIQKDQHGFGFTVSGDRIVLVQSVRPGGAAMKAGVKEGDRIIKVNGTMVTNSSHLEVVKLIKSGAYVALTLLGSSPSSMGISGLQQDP

T2: DFNB31_1, Q9P202
T2 sequence (Q9P202 135-233, limits assumed, looked up): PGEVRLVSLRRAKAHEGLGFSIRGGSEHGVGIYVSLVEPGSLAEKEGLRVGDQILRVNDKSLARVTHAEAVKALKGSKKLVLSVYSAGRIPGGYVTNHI

T3: GRIP1_7, Q9Y3R0
T3 sequence (Q9Y3R0 999-1096, limits assumed, looked up): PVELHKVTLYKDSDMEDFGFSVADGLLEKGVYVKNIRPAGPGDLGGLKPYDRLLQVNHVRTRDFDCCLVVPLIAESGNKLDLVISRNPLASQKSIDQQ

T4: HTRA4, P83105
T4 sequence (P83105 378-476, limits assumed, looked up): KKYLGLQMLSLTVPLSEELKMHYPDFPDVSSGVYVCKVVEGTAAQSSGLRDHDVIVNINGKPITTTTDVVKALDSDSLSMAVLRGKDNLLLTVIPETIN

T5: LIN7A, O14910
T5 sequence (O14910 103-200, limits assumed, looked up): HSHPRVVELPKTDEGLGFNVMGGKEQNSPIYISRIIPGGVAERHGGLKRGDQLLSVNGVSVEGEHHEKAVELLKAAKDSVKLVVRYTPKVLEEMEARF

T6: LNX2_2, Q8N448
T6 sequence (Q8N448 334-432, limits assumed, looked up): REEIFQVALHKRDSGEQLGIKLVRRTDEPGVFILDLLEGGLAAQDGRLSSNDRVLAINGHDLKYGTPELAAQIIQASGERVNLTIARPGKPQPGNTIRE

T7: MPDZ_10, O75970
T7 sequence (O75970 1624-1722, limits assumed, looked up): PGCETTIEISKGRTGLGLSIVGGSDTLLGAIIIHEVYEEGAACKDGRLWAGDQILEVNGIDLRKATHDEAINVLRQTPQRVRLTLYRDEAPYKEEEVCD

T8: MPP2, Q14168
T8 sequence (Q14168 180-250, limits assumed, looked up): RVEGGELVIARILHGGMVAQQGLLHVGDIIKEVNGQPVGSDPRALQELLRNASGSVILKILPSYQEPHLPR

T9: NHERF3_4, Q5T2W1
T9 sequence (Q5T2W1 373-468, limits assumed, looked up): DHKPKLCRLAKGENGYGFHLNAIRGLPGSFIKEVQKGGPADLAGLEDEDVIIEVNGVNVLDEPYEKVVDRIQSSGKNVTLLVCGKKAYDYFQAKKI

T10: PCLO, Q9Y6V0
T10 sequence (Q9Y6V0 4491-4600, limits assumed, looked up): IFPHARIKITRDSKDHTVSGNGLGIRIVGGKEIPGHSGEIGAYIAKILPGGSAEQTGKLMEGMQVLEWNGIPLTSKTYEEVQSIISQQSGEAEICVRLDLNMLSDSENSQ

T11: RADIL, Q96JH8
T11 sequence (Q96JH8 971-1071, limits assumed, looked up): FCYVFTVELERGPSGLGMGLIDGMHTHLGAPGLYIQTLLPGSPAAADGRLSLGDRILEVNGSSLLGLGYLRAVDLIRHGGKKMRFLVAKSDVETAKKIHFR

T12: TX1BP3, O14907
T12 sequence (O14907 10-122, limits assumed, looked up): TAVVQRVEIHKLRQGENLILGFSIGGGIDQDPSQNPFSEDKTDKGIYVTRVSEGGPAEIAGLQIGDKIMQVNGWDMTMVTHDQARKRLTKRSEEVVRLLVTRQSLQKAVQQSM

B1: TGFA, P01135 (peptide)
chain: TACCHSETVV
B2: GHRHR, Q02643 (peptide)
chain: SAAKVLTSMC
B3: ADAM22, Q9P0K1 (peptide)
chain: QSARLWETSI
B4: GPRC6A, Q5T6X5 (peptide)
chain: TLPRKRMSSI
B5: RSRC2, Q7L4I2 (peptide)
chain: TSSMRGMDAV
B6: EFNB1, P52799 (peptide)
chain: QSPANIYYKV

target: T1, ARHGEF11, O15085; assay: holdup assay; set-up: key: below the threshold = too weak to quantify, mostly under pKd 3.1 to 4; details: plain residues with an end cap or a label only (N-terminal biotin on a linker: ado-ado)

pKd | Binder
4.44 | B1
4.21 | B2
3.79 | B3
below the threshold | B4
below the threshold | B5
below the threshold | B6

target: T2, DFNB31_1, Q9P202; assay: holdup assay; set-up: key: below the threshold = too weak to quantify, mostly under pKd 3.1 to 4; details: plain residues with an end cap or a label only (N-terminal biotin on a linker: ado-ado)

pKd | Binder
4.02 | B1
below the threshold | B2
5.41 | B3
3.59 | B4
below the threshold | B5
below the threshold | B6

target: FRMPD2_1, Q68DX3; assay: holdup assay; set-up: key: below the threshold = too weak to quantify, mostly under pKd 3.1 to 4; details: plain residues with an end cap or a label only (N-terminal biotin on a linker: ado-ado)
Sequence (Q68DX3 770-861): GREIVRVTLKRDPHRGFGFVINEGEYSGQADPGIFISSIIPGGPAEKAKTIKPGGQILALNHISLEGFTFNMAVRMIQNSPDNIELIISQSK

pKd | Binder
below the threshold | B1
below the threshold | B2
below the threshold | B3
below the threshold | B4
below the threshold | B5
below the threshold | B6

target: FRMPD2_2, Q68DX3; assay: holdup assay; set-up: key: below the threshold = too weak to quantify, mostly under pKd 3.1 to 4; details: plain residues with an end cap or a label only (N-terminal biotin on a linker: ado-ado)
Sequence (Q68DX3 944-1038): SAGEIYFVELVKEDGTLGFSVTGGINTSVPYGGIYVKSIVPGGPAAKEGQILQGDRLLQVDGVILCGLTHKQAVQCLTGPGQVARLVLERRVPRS

pKd | Binder
4.1 | B1
below the threshold | B2
3.97 | B3
below the threshold | B4
below the threshold | B5
below the threshold | B6

target: GOPC, Q9HD26; assay: holdup assay; set-up: key: below the threshold = too weak to quantify, mostly under pKd 3.1 to 4; details: plain residues with an end cap or a label only (N-terminal biotin on a linker: ado-ado)

pKd | Binder
3.82 | B1
below the threshold | B2
4.42 | B3
below the threshold | B4
below the threshold | B5
below the threshold | B6

target: T3, GRIP1_7, Q9Y3R0; assay: holdup assay; set-up: key: below the threshold = too weak to quantify, mostly under pKd 3.1 to 4; details: plain residues with an end cap or a label only (N-terminal biotin on a linker: ado-ado)

pKd | Binder
below the threshold | B1
below the threshold | B2
below the threshold | B3
below the threshold | B4
below the threshold | B5
below the threshold | B6

target: T4, HTRA4, P83105; assay: holdup assay; set-up: key: below the threshold = too weak to quantify, mostly under pKd 3.1 to 4; details: plain residues with an end cap or a label only (N-terminal biotin on a linker: ado-ado)

pKd | Binder
3.59 | B1
below the threshold | B2
3.61 | B3
below the threshold | B4
below the threshold | B5
below the threshold | B6

target: IL16_3, Q14005; assay: holdup assay; set-up: key: below the threshold = too weak to quantify, mostly under pKd 3.1 to 4; details: plain residues with an end cap or a label only (N-terminal biotin on a linker: ado-ado)
Sequence (Q14005 1107-1207): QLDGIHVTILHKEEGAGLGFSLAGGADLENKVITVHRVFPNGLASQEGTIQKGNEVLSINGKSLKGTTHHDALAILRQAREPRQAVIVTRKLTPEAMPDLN

pKd | Binder
below the threshold | B1
below the threshold | B2
below the threshold | B3
below the threshold | B4
below the threshold | B5
below the threshold | B6

target: Inadl_10, Q8NI35; assay: holdup assay; set-up: key: below the threshold = too weak to quantify, mostly under pKd 3.1 to 4; details: plain residues with an end cap or a label only (N-terminal biotin on a linker: ado-ado)
Sequence (Q8NI35 1673-1763): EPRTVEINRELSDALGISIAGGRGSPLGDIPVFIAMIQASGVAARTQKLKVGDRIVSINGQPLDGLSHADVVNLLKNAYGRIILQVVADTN

pKd | Binder
below the threshold | B1
below the threshold | B2
3.8 | B3
below the threshold | B4
below the threshold | B5
below the threshold | B6

target: Inadl_5, Q8NI35; assay: holdup assay; set-up: key: below the threshold = too weak to quantify, mostly under pKd 3.1 to 4; details: plain residues with an end cap or a label only (N-terminal biotin on a linker: ado-ado)
Sequence (Q8NI35 673-780): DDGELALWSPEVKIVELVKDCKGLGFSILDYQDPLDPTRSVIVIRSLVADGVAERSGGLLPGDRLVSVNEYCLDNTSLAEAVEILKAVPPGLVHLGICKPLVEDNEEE

pKd | Binder
3.7 | B1
below the threshold | B2
below the threshold | B3
below the threshold | B4
below the threshold | B5
below the threshold | B6

target: Inadl_9, Q8NI35; assay: holdup assay; set-up: key: below the threshold = too weak to quantify, mostly under pKd 3.1 to 4; details: plain residues with an end cap or a label only (N-terminal biotin on a linker: ado-ado)
Sequence (Q8NI35 1530-1615): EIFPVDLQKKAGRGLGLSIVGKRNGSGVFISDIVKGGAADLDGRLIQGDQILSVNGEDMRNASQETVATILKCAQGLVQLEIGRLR

pKd | Binder
below the threshold | B1
below the threshold | B2
below the threshold | B3
below the threshold | B4
below the threshold | B5
below the threshold | B6

target: T5, LIN7A, O14910; assay: holdup assay; set-up: key: below the threshold = too weak to quantify, mostly under pKd 3.1 to 4; details: plain residues with an end cap or a label only (N-terminal biotin on a linker: ado-ado)

pKd | Binder
3.51 | B1
below the threshold | B2
3.69 | B3
below the threshold | B4
below the threshold | B5
below the threshold | B6

target: LNX1_3, Q8TBB1; assay: holdup assay; set-up: key: below the threshold = too weak to quantify, mostly under pKd 3.1 to 4; details: plain residues with an end cap or a label only (N-terminal biotin on a linker: ado-ado)
Sequence (Q8TBB1 500-596): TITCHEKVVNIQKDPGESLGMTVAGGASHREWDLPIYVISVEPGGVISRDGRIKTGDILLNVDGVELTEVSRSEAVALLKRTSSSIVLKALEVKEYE

pKd | Binder
below the threshold | B1
below the threshold | B2
below the threshold | B3
below the threshold | B4
below the threshold | B5
4.38 | B6

target: T6, LNX2_2, Q8N448; assay: holdup assay; set-up: key: below the threshold = too weak to quantify, mostly under pKd 3.1 to 4; details: plain residues with an end cap or a label only (N-terminal biotin on a linker: ado-ado)

pKd | Binder
5.21 | B1
below the threshold | B2
below the threshold | B3
below the threshold | B4
below the threshold | B5
4.25 | B6

target: MAGI1_1, Q96QZ7; assay: holdup assay; set-up: key: below the threshold = too weak to quantify, mostly under pKd 3.1 to 4; details: plain residues with an end cap or a label only (N-terminal biotin on a linker: ado-ado)
Sequence (Q96QZ7 1-106): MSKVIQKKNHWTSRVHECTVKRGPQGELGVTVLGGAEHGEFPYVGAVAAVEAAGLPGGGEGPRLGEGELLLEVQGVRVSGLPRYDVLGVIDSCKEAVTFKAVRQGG

pKd | Binder
below the threshold | B1
below the threshold | B2
below the threshold | B3
below the threshold | B4
below the threshold | B5
below the threshold | B6

target: MAGI1_2, Q96QZ7; assay: holdup assay; set-up: key: below the threshold = too weak to quantify, mostly under pKd 3.1 to 4; details: plain residues with an end cap or a label only (N-terminal biotin on a linker: ado-ado)
Sequence (Q96QZ7 456-580): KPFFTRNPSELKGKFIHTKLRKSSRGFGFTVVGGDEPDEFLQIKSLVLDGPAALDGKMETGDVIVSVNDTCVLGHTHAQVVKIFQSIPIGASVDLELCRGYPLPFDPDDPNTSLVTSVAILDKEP

pKd | Binder
4.24 | B1
below the threshold | B2
below the threshold | B3
below the threshold | B4
below the threshold | B5
below the threshold | B6

target: MAGI3_2, Q5TCQ9; assay: holdup assay; set-up: key: below the threshold = too weak to quantify, mostly under pKd 3.1 to 4; details: plain residues with an end cap or a label only (N-terminal biotin on a linker: ado-ado)
Sequence (Q5TCQ9 398-503): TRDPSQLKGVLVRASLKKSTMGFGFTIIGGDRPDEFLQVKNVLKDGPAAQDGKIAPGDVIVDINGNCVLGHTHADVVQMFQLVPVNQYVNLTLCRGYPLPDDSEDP

pKd | Binder
5.27 | B1
below the threshold | B2
4.22 | B3
4.15 | B4
below the threshold | B5
below the threshold | B6

target: T7, MPDZ_10, O75970; assay: holdup assay; set-up: key: below the threshold = too weak to quantify, mostly under pKd 3.1 to 4; details: plain residues with an end cap or a label only (N-terminal biotin on a linker: ado-ado)

pKd | Binder
below the threshold | B1
3.49 | B2
below the threshold | B3
below the threshold | B4
below the threshold | B5
below the threshold | B6

target: T8, MPP2, Q14168; assay: holdup assay; set-up: key: below the threshold = too weak to quantify, mostly under pKd 3.1 to 4; details: plain residues with an end cap or a label only (N-terminal biotin on a linker: ado-ado)

pKd | Binder
below the threshold | B1
below the threshold | B2
below the threshold | B3
below the threshold | B4
below the threshold | B5
below the threshold | B6

target: T9, NHERF3_4, Q5T2W1; assay: holdup assay; set-up: key: below the threshold = too weak to quantify, mostly under pKd 3.1 to 4; details: plain residues with an end cap or a label only (N-terminal biotin on a linker: ado-ado)

pKd | Binder
below the threshold | B1
4 | B2
below the threshold | B3
below the threshold | B4
below the threshold | B5
below the threshold | B6

target: T10, PCLO, Q9Y6V0; assay: holdup assay; set-up: key: below the threshold = too weak to quantify, mostly under pKd 3.1 to 4; details: plain residues with an end cap or a label only (N-terminal biotin on a linker: ado-ado)

pKd | Binder
below the threshold | B1
below the threshold | B2
below the threshold | B3
below the threshold | B4
below the threshold | B5
below the threshold | B6

target: T11, RADIL, Q96JH8; assay: holdup assay; set-up: key: below the threshold = too weak to quantify, mostly under pKd 3.1 to 4; details: plain residues with an end cap or a label only (N-terminal biotin on a linker: ado-ado)

pKd | Binder
4.35 | B1
3.71 | B2
3.71 | B3
below the threshold | B4
below the threshold | B5
4.05 | B6

target: TJP1_2, Q07157; assay: holdup assay; set-up: key: below the threshold = too weak to quantify, mostly under pKd 3.1 to 4; details: plain residues with an end cap or a label only (N-terminal biotin on a linker: ado-ado)
Sequence (Q07157 181-274): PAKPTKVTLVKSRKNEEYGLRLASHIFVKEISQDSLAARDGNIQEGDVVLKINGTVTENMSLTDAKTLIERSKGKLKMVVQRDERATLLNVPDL

pKd | Binder
below the threshold | B1
below the threshold | B2
below the threshold | B3
below the threshold | B4
below the threshold | B5
below the threshold | B6

target: TJP2_1, Q9UDY2; assay: holdup assay; set-up: key: below the threshold = too weak to quantify, mostly under pKd 3.1 to 4; details: plain residues with an end cap or a label only (N-terminal biotin on a linker: ado-ado)
Sequence (Q9UDY2 24-128): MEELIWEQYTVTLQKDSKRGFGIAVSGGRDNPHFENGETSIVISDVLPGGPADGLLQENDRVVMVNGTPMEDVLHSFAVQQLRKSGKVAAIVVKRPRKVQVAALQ

pKd | Binder
below the threshold | B1
3.6 | B2
below the threshold | B3
below the threshold | B4
below the threshold | B5
below the threshold | B6

target: T12, TX1BP3, O14907; assay: holdup assay; set-up: key: below the threshold = too weak to quantify, mostly under pKd 3.1 to 4; details: plain residues with an end cap or a label only (N-terminal biotin on a linker: ado-ado)

pKd | Binder
3.82 | B1
3.54 | B2
4.8 | B3
below the threshold | B4
below the threshold | B5
below the threshold | B6
